Target: transferrin receptor (on Hepa 1-6 cells; in tissues of C57BL/6 wild-type mice) (mouse) (UniProt Q62351)
Assay: cell-based or functional assay

Chain of UniProt Q62351 (Q62351 whole entry): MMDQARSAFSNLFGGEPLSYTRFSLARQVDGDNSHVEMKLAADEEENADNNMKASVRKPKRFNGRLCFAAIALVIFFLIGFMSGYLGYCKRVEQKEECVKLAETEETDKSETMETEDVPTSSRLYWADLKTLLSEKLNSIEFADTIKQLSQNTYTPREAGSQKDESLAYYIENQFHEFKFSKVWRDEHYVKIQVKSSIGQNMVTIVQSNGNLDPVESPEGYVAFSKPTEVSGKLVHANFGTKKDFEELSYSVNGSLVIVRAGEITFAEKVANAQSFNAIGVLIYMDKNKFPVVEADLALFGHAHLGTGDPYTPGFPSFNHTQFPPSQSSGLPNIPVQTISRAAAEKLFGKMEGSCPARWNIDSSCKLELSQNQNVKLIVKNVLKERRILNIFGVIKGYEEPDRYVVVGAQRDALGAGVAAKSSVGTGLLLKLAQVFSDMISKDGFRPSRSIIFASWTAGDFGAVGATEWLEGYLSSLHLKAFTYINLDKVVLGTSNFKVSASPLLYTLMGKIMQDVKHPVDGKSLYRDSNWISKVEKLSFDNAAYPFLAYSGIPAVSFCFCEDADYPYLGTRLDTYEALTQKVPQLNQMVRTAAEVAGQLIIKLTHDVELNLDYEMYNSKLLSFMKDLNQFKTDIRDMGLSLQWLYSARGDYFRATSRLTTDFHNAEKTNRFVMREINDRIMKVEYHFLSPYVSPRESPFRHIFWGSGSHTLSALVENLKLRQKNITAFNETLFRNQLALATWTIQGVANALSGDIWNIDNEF

- reduction in HPRT expression in Hepa 1-6 cells (100 nM complex, 72 hours): 50%
- reduction in HPRT expression in gastrocnemius of C57BL/6 mice (single i.v. dose, 2 mg/kg RNA, day 3): 31%
- reduction in HPRT expression in heart of C57BL/6 mice (single i.v. dose, 2 mg/kg RNA, day 3): 30%
Substance: antiTfR-siHPRT complex: RI7 217 anti-TfR1 Fab (DTX-A-002) covalently linked via a non-cleavable GMBS linker to HPRT siRNA (siHPRT)

Source: patent US20230203180A1
